Source: PMC13036491, “RNA binding protein Musashi1 interacts with the viral genomic RNA and restricts SARS-CoV-2 infection by repressing translation”

Biological target: GST-Msi1 (Homo sapiens, UniProt O43347 1-362)
Assay: EMSA
Conditions: protein: recombinant; tags: N-terminal GST (pGEX 5X-2); label: fluorescein-12-UTP

GST-Msi1, sequence (O43347 whole entry): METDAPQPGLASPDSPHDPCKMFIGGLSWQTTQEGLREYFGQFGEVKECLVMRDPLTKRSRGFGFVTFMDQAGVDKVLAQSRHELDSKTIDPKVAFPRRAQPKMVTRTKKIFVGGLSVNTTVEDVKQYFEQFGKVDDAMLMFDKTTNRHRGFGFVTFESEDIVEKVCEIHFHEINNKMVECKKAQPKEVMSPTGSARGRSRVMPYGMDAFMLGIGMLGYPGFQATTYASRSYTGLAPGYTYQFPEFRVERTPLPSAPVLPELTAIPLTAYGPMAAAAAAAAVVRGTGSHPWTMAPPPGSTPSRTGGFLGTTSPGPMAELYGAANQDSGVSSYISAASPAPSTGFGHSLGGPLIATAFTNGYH

Row | Binder | binding result
1 | GGGAUUUUAGCCGUGCUAUCCCCA (ssRNA) [M2 mutant RNA] | no binding
2 | GGGUAGCACAAGCCGAUGCCGUUAA (ssRNA) [M1 mutant RNA] | no binding
